Drawing on publication PMC9596850, “Tonsillar Microbiome‐Derived Lantibiotics Induce Structural Changes of IL‐6 and IL‐21 Receptors and Modulate Host Immunity” (Advanced Science, 2022), this text covers Kd for one substance.

Like-named read-outs stand apart in the source and are kept apart here.

For assay [1], the target named is mouse IL-21 receptor protein with the Fc region of human IgG1 (mouse) (UniProt Q9JHX3). The experiment in a line: SPR; Biacore 8K; receptor immobilised on CM5 chip by amine coupling, 25 °C, PBS-P running buffer; analytes with 5% DMSO injected serially; steady-state affinity model.
Assay [2] has the same target. Described as above. This is another data set of the same source.

Regarding salivaricin A2 (peptide), the figures for the Kd in assay [1] and in assay [2] were 29.4 µM and 12.6 µM, respectively.
